Experiment [1] has as its target T1, extracellular domain of FGFR2c protein (Example 1) (UniProt P21802 22-377).
T1 construct: extracellular domain
As to the kind of experiment: phage ELISA. In general terms: An ELISA detects its analyte on a solid surface through an enzyme-linked reagent.

Experiment [2] has as its target T1, extracellular domain of FGFR2c protein …. As to the kind of experiment: phage ELISA. This is another data set of the same source.
The next experiment has as its target FGFR2c (acro) (UniProt P21802 22-377). As to the kind of experiment: ELISA, antibody 10 µg/mL.
Experiment [3] addresses T2, recombinant cynomolgus monkey FGFR2b (cynomolgus monkey).
T2 construct: extracellular domain; bought; also called cynomolgus macaque FGFR2b
Nature of the experiment: ELISA, antibody 1ug/mL.

The target of experiment [4] is T3, human FGFR2b (Kaixia Biotechnology, catalog number FGR-HM1BB) (human, UniProt P21802-3 22-378).
T3 construct: extracellular domain; bought; also called hFGFR2b; human FGFR2b protein
T3 sequence (P21802 other isoform, or with tags, fused parts or gaps): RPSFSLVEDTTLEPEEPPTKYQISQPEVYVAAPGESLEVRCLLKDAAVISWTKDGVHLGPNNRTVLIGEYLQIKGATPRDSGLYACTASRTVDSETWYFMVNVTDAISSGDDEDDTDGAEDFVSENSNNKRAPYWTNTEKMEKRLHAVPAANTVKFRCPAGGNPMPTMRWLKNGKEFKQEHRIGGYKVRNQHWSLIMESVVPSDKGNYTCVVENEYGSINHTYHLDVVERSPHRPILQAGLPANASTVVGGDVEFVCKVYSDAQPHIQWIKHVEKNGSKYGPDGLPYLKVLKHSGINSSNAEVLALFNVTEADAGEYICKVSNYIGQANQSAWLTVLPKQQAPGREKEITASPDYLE
As to the kind of experiment: ELISA, FGFR2b coated at 1 µg/ml.

Experiment [5] has as its target T3, human FGFR2b (Kaixia Biotechnology, …). Nature of the experiment: BLI, antibody on AHC2 sensor. In general terms: BLI is a label-free optical method that tracks binding on a fibre tip over time.
The target of the next experiment is T4, FGFR2b on KATO III cells (human, UniProt P21802-3 22-822).
T4 construct: whole, on cells; also called KATO III cells that overexpress FGFR2b
T4 sequence (P21802 other isoform, or with tags, fused parts or gaps): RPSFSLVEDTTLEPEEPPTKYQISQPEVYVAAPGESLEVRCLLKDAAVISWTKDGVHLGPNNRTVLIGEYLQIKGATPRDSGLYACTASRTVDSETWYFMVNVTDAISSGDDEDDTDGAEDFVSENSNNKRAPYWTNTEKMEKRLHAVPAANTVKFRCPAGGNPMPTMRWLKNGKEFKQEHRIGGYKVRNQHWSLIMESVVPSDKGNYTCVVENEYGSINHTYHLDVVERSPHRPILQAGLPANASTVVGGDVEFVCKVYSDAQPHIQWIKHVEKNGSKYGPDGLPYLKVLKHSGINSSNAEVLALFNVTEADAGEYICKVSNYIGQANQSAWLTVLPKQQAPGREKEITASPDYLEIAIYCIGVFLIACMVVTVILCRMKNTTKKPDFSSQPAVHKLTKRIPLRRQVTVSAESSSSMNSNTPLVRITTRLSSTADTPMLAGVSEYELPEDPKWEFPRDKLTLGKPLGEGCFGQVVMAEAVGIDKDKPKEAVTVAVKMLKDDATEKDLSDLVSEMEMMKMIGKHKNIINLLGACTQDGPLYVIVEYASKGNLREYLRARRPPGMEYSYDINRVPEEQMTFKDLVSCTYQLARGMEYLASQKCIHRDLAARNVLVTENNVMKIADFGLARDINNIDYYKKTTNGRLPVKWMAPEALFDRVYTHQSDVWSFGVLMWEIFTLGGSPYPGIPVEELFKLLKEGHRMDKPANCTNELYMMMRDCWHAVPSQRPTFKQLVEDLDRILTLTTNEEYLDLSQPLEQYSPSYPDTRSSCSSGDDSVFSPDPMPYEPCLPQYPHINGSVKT
As to the kind of experiment: flow cytometry, KATO III cells. For orientation: Flow cytometry measures light scatter and fluorescence of single cells or particles in a stream.

We go through 18 molecules from patent EP4714976A1 (Sunshine Lake Pharma Co., Ltd., dated 2026).

Where a chain is given by its changes, count along the chain named.

T1 sequence (P21802 22-377): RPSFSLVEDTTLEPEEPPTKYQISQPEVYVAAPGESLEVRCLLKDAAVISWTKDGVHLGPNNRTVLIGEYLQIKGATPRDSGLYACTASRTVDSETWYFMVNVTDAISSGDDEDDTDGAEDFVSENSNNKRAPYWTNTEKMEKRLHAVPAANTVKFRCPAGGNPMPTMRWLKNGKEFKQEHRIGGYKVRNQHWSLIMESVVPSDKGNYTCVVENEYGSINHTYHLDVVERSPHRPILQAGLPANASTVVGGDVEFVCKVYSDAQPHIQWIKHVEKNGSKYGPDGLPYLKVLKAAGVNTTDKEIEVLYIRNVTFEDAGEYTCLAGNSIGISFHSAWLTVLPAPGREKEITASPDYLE
FGFR2c (acro), sequence (P21802 22-377): as above

B1: 1B8 scFv displayed on phage (scFv)
scFv: QIQLQQSGAELVKPGASVKMSCKASGYTFASYNLHWVKQTPGQGLEWIGLIYPENGDTSYNQKFKGKATLTADTSSTTAYIQLSSLTSEDSAVYFCARGGFDYWGQGTSLTVSSGGGGSGGGGSGGGGSDIKMTQSPASLSASVGETVTITCGASENIYGALNWYQRKQGKSPQLLIYGATNLADGMSSRFSGSGSGRQYSLKISSLHPDDVATYYCQNVLSTPYTFGGGTKLEIK
Turning to B1, in experiment [1], the binding result was “no binding”. Moreover, the “OD (450 nm) value” in experiment [2] amounted to 0.082.

B2: 3A8 scFv displayed on phage (scFv)
scFv: QVQLQQSGAELVKPGASVKMSCKASGYTFTIYNIHWVRQTPGQGLEWIGLIYPDNGDTSYNQKFKAKATLTADKSSSTAYMQLSSLTSEDSAVYYCARGGFDYWGQGTSLTVSSGGGGSGGGGSGGGGSDIVMTQSQKFMSTSVGDRVSVTCKASQNVGTNVAWYQQKPGQSPKALIYSASYRYSGVPDRFTGSGSGTDFTLTISNVQAEDLADYFCQQHYSTPYTFGGGTKLEMK
Take B2: the binding result in experiment [1] is reported as “no binding”. Moreover, the “OD (450 nm) value” in experiment [2] was found to be 0.065.

B3: 3E7 scFv displayed on phage (scFv)
scFv: B2 scFv with S109T, D130N, N206G, F216Y, S222N, M235I
Regarding B3, the binding result in experiment [1] is “no binding”. The “OD (450 nm) value” in experiment [2] was determined as 0.034.

B4: 3F11 scFv displayed on phage (scFv)
scFv: B2 scFv with T30A, I31P, A209S, D214E, Y225F, G229S, M235I
Consider B4, for which the binding result in experiment [1] was “no binding”. In addition, in experiment [2], the “OD (450 nm) value” amounted to 0.045.

B5: 3H9 scFv-Fc (Fc fusion)
chain: EIQLQQSGAELVKPGASVKMSCKASGYTFSFYNMHWVKRTPGQGLEWIGLIYPDNGDTSYNQKFKGKATLTADTSSSTAYMQLSSLTSEDSAVYYCARGGLDYWGQGTTLTVSSGGGGSGGGGSGGGGSDIVLTQSPASLSVSVGETVTITCRASENIYSNLAWYQQKQGKSPQLLVYAATNLADGVPSRFSGSGSGTQYSLKINSLQSEDFGSYYCQHFWGTPYTFGGGTKLELKESKYGPPCPPCPAPEAAGGPSVFLFPPKPKDTLMISRTPEVTCVVVDVSQEDPEVQFNWYVDGVEVHNAKTKPREEQFNSTYRVVSVLTVLHQDWLNGKEYKCKVSNKGLPSSIEKTISKAKGQPREPQVYTLPPSQEEMTKNQVSLTCLVKGFYPSDIAVEWESNGQPENNYKTTPPVLDSDGSFFLYSKLTVDKSRWQEGNVFSCSVMHEALHNHYTQKSLSLSLG
notes: scFv-Fc dimer
The term EC50 denotes the concentration at which the effect is half-maximal. Usually Kd stands for the concentration at which binding is half-saturated. Usually koff stands for a measure of how fast the partners let go of each other. What is called kon is the rate constant with which the complex forms. With B5, in the experiment with FGFR2c (acro), the “OD (450 nm) value” was found to be 0.45. In addition, the “OD (450 nm) value” in experiment [3] is 3.29. This molecule also gave an EC50 in experiment [4] of 0.0278 µg/mL. In addition, in experiment [5], binding was characterised by a dissociation constant (Kd) of 5.69 nM, the koff came out at 0.00152 s⁻¹ and the kon came to 267000 M⁻¹ s⁻¹. The molecule further returned an EC50 in the experiment with FGFR2b on KATO III cells of 0.161 µg/mL.

B6: 3E1 scFv displayed on phage (scFv)
scFv: QVQLQQPGAEVVKPGASVKMSCKASGYTFTDYYIHWVKQTPGQGLEWIGAIYPDNGDTSYNQKFKVKATLTADKSSSTAYMQLSSLTSEDSAVYYCARAFTYWGQGTLVTVSAGGGGSGGGGSGGGGSDILITQSPASLSASVGETVTITCGASENIYGALNWYQRKQGKSPQLLIYGATNLADGMSSRFSGSGSGRQYSLKISSLHPDDVATYYCQNVLSTPYTFGGGTKLEIK
For the molecule B6, in experiment [1], the binding result is listed as “no binding”. Besides, the “OD (450 nm) value” in experiment [2] came out at 0.056.

B7: 3B7 scFv displayed on phage (scFv)
scFv: EVQLQQSGAELVKPGASVKMSCKASGYTFRYYNMHWVKRTPGQGLEWIGLIYPDNGDTSYNQKFKGKATLTADTSSSTAYMQLSSLTSEDSAVYYCARGGFDYWGQGTTLTVSSGGGGSGGGGSGGGGSDIQMTQSPASLSASVGETVTITCGASENIYGALNWYQRKQGKSPQLLIYGATNLADGMSSRFSGSGSGRQYSLKISSLHPDDVATYYCQNVLSTPYTFGGGTKLELK
On to B7, for which the binding result in experiment [1] is recorded as “no binding”. For the same molecule, the “OD (450 nm) value” in experiment [2] worked out at 0.043.

B8: 3B4 scFv displayed on phage (scFv)
scFv: B7 scFv with E10D, R30S, K38R, F101L, T134I, L140M, L235M
For the molecule B8, the binding result in experiment [1] is given as “no binding”. Moreover, the “OD (450 nm) value” in experiment [2] is 0.042.

B9: 3C9 scFv displayed on phage (scFv)
scFv: B7 scFv with V2I, T28I, F101L, T134I, L235I
Consider B9, for which the binding result in experiment [1] is given as “no binding”. The “OD (450 nm) value” in experiment [2] stood at 0.033.

B10: 3E3 scFv displayed on phage (scFv)
scFv: QVQLQQPGAVLVKPGASVRMSCKASGYTFPYYNVHWVKRTPGQGLEWIGLIYPDNGDTSYNQKFTGKATLTADTSSSTAYMQLSSLTSEDSAVYYCARGGLDYWGQGTTLTVSAGGGGSGGGGSGGGGSDVQITQSPASLSASVGETVTITCGASENIYGALNWYQRKQGKSPQLLIYGATNLADGMSSRFSGSGSGRQYSLKISSLHPDDVATYYCQNVLSTPYTFGGGTKLEIK
In the case of B10, in experiment [1], the binding result is “no binding”. For the same molecule, in experiment [2], the “OD (450 nm) value” came to 0.033.

B11: 3F10 scFv displayed on phage (scFv)
scFv: B7 scFv with R30S, Y31F, M34I, K38R, R39Q, G66A, T74K, I131V, Q132L, L235I
In the case of B11, the binding result in experiment [1] is reported as “no binding”. The “OD (450 nm) value” in experiment [2] worked out at 0.039.

B12: 3F5 scFv displayed on phage (scFv)
scFv: B7 scFv with V2I, F101L, Q132V, M133L, L235I
On to B12, for which the binding result in experiment [1] is given as “no binding”. Also, the “OD (450 nm) value” in experiment [2] amounted to 0.038.

B13: 3E2 scFv displayed on phage (scFv)
scFv: EIQLQQSGAELVKPGASVKMSCKASGYTFSFYNMHWVKRTPGQGLEWIGLIYPDNGDTSYNQKFKGKATLTADTSSSTAYMQLSSLTSEDSAVYYCARGGLDYWGQGTSLTVSSGGGGSGGGGSGGGGSNIVMTQSQKFMSTSVGDRVSVTCKASQNVGTNVAWYQQKPGQSPKALIYSASYRYTGVPDRFTGSGSGTDFTFTISSVQAEDLAVYYCQQHYSTPYTFGGGTKLEIK
On to B13, for which, in experiment [1], the binding result is listed as “no binding”. The “OD (450 nm) value” in experiment [2] came to 0.036.

B14: 2B1 scFv displayed on phage (scFv)
scFv: EVQLQQSGAELVKPGASVKMSCKASGYTFASYNLHWVKQTPGQGLEWIGLIYPENGDTSYNQKFKGKATLTADKSSSTAYIQLSSLTSEDSAVYFCARGGFDYWGQGTSLTVSSGGGGSGGGGSGGGGSDIQMIQSPASLSVSVGETVTITCRASENIYSNLAWYQQKQGKSPQLLVYNAKTLADGVPSRFSGSGSGTQYSLKINSLQPEDFGSYYCQHFWSTPYTFGGGTKLEIK
In the case of B14, the binding result in experiment [1] is “no binding”. The “OD (450 nm) value” in experiment [2] turned out to be 0.049.

B15: 3H6 scFv displayed on phage (scFv)
scFv: QVQLQQSGAELVKPGASVKMSCKASGYTFSFYNIHWVRQTPGQGLEWIGLIYPDNGDTSYNQKFKAKATLTADKSSSTAYMQLSSLTSEDSAVYYCARGGFDYWGQGTTLTVSSGGGGSGGGGSGGGGSDIQMTQSPASLSASVGETVTITCRASENIYSYLAWYQQKQGKSPQLLVYNAKTLAEGVPSRFSGSGSGTQFSLKINSLQPEDFGSYYCQHHYGTPYTFGGGTKLEMK
For the molecule B15, the binding result in experiment [1] is “no binding”. Besides, the “OD (450 nm) value” in experiment [2] amounted to 0.062.

B16: 1G6 scFv displayed on phage (scFv)
scFv: EIQLQQSGAELVKPGASVKMSCKASGYTFRYYNMHWVKRTPGQGLEWIGLIYPDNGDTSYNQKFKGKATLTADTSSSTAYMQLSSLTSEDSAVYYCARGGLDYWGQGTSLTVSSGGGGSGGGGSGGGGSNIVMTQSHKFMSTSVGDRVSITCKASQDVNTDVAWYQQKPGQSPKLLIYSASYRYTGVPTRFTGSGSGTDFTFTISGVQAEDLADYYCQQHYNTPYTFGGGTKLELK
Take B16: in experiment [1], the binding result is “no binding”. In addition, the “OD (450 nm) value” in experiment [2] was determined as 0.073.

B17: 1D7 scFv displayed on phage (scFv)
scFv: QIQLQQSGAELVKPGASVKMSCKASGYTFRYYNMHWVKRTPGQGLEWIGLIYPDNGDTSYNQKFKGKATLTADTSSSTAYMQLSSLTSEDSAVYYCARGGLDYWGQGTSLTVSSGGGGSGGGGSGGGGSDIQMTQSPSSMSASLGDRITITCQATQDIVKNLNWYQQKPGKPPSFLIYYATELAEGVPSRFSGSGSGSDYSLTISNLESEDFADYYCLQFYEFPLTFGAGTKLELK
Turning to B17, the binding result in experiment [1] was “no binding”. Further, the “OD (450 nm) value” in experiment [2] turned out to be 0.059.

B18: 3C7 scFv displayed on phage (scFv)
scFv: EIQLQQSGAELVKPGASVKMSCKASGYIFRNYYIHWVKRTPGQGLEWIGAIYPDNGDTSYNQRFKVKATLTADTSSSTAYMQLSSLTSEDSAVYYCARAFTYWGQGTTLTVSSGGGGSGGGGSGGGGSDIQMIQSPASLSASVGETVTITCGASENIYGALNWYQRKQGKSPQLLIYGATNLADGMSSRFSGSGSGRQYSLKISSLHPDDVATYYCQNVLSTPYTFGGGTKLEIK
For the molecule B18, in experiment [1], the binding result is “no binding”. Moreover, the “OD (450 nm) value” in experiment [2] was 0.04.
